Experimental data published in FireProtDB (doi:10.1093/protein/7.6.777).

B1: Subtilisin-chymotrypsin inhibitor-2A, P01053 (parent)
chain: MSSVEKKPEGVNTGAGDRHNLKTEWPELVGKSVEEAKKVILQDKPEAQIIVLPVGTIVTMEYRIDRVRLFVDKLDNIAQVPRVG

Variants of: B1
Conditions: Hordeum vulgare, structure 2CI2, whole UniProt chain shown; for Tm / unfolding enthalpy (calorimetric): Thermal, DSC; for denaturant m value / denaturant midpoint (higher = more stable) / unfolding free energy: pH 6.25, 25 °C, GdnHCl, Fluorescence, MES 50 mM

S32A E34A E35A
Tm (pH 3, glycine-HCl 10 mM): 56.2 °C | unfolding enthalpy (calorimetric) (pH 3, glycine-HCl 10 mM): 54 kcal/mol | denaturant m value: 2.18 kcal/mol/M | denaturant midpoint (higher = more stable): 3.14 M | unfolding free energy: 6.86 kcal/mol

E34D
denaturant m value: 1.83 kcal/mol/M | denaturant midpoint (higher = more stable): 3.73 M | unfolding free energy: 6.84 kcal/mol

E34Q
denaturant m value: 1.87 kcal/mol/M | denaturant midpoint (higher = more stable): 3.85 M | unfolding free energy: 7.03 kcal/mol

E34N
denaturant m value: 2.01 kcal/mol/M | denaturant midpoint (higher = more stable): 3.64 M | unfolding free energy: 7.29 kcal/mol

E35D
denaturant m value: 2.2 kcal/mol/M | denaturant midpoint (higher = more stable): 3.62 M | unfolding free energy: 7.98 kcal/mol

E35N
denaturant m value: 2.18 kcal/mol/M | denaturant midpoint (higher = more stable): 3.45 M | unfolding free energy: 7.53 kcal/mol

E35Q
denaturant m value: 1.84 kcal/mol/M | denaturant midpoint (higher = more stable): 3.76 M | unfolding free energy: 6.92 kcal/mol

S32G
Tm (pH 3.5, formate 10 mM): 69 °C | unfolding enthalpy (calorimetric) (pH 3.5, formate 10 mM): 64 kcal/mol | denaturant m value: 2.1 kcal/mol/M | denaturant midpoint (higher = more stable): 3.59 M | unfolding free energy: 7.52 kcal/mol

S32A
Tm (pH 3, glycine-HCl 10 mM): 58 °C | unfolding enthalpy (calorimetric) (pH 3, glycine-HCl 10 mM): 53 kcal/mol | denaturant m value: 1.86 kcal/mol/M | denaturant midpoint (higher = more stable): 3.54 M | unfolding free energy: 6.58 kcal/mol

E34A E35A
Tm (pH 3, glycine-HCl 10 mM): 60.1 °C | unfolding enthalpy (calorimetric) (pH 3, glycine-HCl 10 mM): 58 kcal/mol | denaturant m value: 2.11 kcal/mol/M | denaturant midpoint (higher = more stable): 3.61 M | unfolding free energy: 7.61 kcal/mol

S32G E34A E35A
Tm (pH 3, glycine-HCl 10 mM): 56.5 °C | unfolding enthalpy (calorimetric) (pH 3, glycine-HCl 10 mM): 55 kcal/mol | denaturant m value: 2.15 kcal/mol/M | denaturant midpoint (higher = more stable): 3.16 M | unfolding free energy: 6.79 kcal/mol
